# According to publication PMC5779224 (2017):
# Tests used:
# AnkB ΔZZUD = molecular target: T1, AnkB ΔZZUD (human, UniProt Q01484-2 1-1872); experiment: ITC
# T1 chain: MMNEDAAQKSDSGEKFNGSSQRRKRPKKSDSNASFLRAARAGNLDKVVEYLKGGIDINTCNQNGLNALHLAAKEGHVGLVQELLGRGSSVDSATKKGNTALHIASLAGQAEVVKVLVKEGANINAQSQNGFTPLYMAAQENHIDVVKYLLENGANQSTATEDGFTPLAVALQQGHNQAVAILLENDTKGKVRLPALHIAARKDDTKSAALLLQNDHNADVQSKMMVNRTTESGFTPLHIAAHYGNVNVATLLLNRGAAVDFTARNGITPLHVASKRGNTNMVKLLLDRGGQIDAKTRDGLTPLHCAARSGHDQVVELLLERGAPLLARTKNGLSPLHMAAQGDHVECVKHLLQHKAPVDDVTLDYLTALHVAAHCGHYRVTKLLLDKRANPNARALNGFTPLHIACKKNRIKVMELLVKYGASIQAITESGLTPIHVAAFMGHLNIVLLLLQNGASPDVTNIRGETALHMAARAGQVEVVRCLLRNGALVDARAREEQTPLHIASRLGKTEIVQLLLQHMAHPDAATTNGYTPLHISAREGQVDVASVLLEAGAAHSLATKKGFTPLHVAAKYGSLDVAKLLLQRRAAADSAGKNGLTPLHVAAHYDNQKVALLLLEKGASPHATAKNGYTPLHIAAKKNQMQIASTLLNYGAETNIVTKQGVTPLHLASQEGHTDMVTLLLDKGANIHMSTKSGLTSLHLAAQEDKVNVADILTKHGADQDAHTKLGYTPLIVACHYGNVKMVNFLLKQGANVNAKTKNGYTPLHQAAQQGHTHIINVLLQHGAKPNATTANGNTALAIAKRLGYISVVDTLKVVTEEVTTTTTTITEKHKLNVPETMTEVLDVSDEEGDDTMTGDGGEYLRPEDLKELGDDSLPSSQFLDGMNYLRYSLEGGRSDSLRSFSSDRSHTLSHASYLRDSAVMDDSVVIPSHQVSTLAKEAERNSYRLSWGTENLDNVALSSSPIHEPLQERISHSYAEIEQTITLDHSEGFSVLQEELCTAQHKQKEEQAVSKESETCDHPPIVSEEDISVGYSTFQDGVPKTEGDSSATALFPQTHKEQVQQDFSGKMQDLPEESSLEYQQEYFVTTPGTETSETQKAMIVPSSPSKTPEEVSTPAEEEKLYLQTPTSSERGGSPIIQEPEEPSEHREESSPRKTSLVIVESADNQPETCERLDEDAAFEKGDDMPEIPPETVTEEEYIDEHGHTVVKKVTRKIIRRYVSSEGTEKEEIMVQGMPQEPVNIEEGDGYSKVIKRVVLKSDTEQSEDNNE
# [1] = molecular target: T2, AnkB 28–847 (MBD + partial AI-c) (human, UniProt Q01484-2 28-847); experiment: ITC
# T2 chain: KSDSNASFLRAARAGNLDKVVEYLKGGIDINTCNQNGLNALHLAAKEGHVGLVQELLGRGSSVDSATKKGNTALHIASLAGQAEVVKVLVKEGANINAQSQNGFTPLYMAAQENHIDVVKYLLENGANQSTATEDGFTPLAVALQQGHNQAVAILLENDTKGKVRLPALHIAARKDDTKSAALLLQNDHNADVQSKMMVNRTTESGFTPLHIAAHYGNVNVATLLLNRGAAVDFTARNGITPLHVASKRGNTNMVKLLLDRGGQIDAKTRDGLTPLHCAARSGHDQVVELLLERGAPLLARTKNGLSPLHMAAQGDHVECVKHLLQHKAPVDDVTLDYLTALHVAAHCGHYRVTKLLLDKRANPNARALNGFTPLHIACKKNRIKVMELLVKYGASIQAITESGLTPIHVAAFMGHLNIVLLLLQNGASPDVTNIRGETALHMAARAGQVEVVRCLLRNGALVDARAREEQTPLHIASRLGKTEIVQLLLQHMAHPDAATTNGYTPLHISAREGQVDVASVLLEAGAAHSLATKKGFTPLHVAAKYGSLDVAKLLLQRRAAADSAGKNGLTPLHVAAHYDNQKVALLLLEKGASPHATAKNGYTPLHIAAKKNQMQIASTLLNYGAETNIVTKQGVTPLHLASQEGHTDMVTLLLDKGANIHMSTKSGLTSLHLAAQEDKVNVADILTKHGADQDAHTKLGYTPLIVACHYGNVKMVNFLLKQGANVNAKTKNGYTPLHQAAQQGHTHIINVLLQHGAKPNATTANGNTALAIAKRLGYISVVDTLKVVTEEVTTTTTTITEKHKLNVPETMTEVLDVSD
binder,measurement,setting,value
SDDSLVDYGEGGEGQFNEDGSFIGQYTV (domain or fragment) [NF186 (aa 1187–1214)],Kd,AnkB ΔZZUD,14 µM
same,Kd,[1],0.49 µM
